The record followed here is article PMC9276969.

The target of the assay is V5-tagged L. vannamei STAT (Litopenaeus vannamei). The experiment in a line: native gel or EMSA; S2 cells co-transfected with pAc5.1-STAT and pAc5.1-PTPN6 or pAc5.1-GFP (control); lysed in Pierce IP Lysis buffer at 48 h; 10% native PAGE, Western blot with antibody against shrimp STAT; dimer and monomer bands. In general terms: In EMSA bound probe runs differently from free probe, usually more slowly.

The term stoichiometry N denotes a count of units in the complex or per binding partner. As to “V5-tagged L. vannamei STAT (natural protein)”, the stoichiometry N came to 2.
